According to publication PMC10746158, “Archaeal GPN-loop GTPases involve a lock-switch-rock mechanism for GTP hydrolysis” (mBio, 2023):

Substrate: Nc1nc2c(ncn2[C@@H]2O[C@H](COP(=O)(O)OP(=O)(O)OP(=O)(O)O)[C@@H](O)[C@H]2O)c(=O)[nH]1
Assay: Malachite green phosphate release, Michaelis-Menten fit
Format: biochemical, Sulfolobus acidocaldarius
Details: 65 °C, 0-500 µM GTP, 50 mM Tris pH 8.0, 150 mM NaCl, 10 mM MgCl2, 10 µM SaGPN

B1: SaGPN (Sulfolobus acidocaldarius DSM 639) (protein)
chain: MYFIFVLGTAGSGKTTLVKALQDYLLNNELDTAIINLDPAVEVLPYKPDIDAREYVDVYDVMNKYELGPNSSLVISVDLLLTKAKELKEDLNQLQANYVLVDTPGQIELFAYRDTGKILSSFISEGSKSVSVFLFDSYLSKDPKSFLSLFLLSSSIKFRIDMPQISVLSKVDLLSSSELERMRSWIEDGSIIDELGSIDEYSFELVKTIVENLESFPIPVSSTNFSGLDQLYAEVQKVLAGGEDFETEEPNPRL
notes: E. coli BL21(DE3) Rosetta; Y2-A240 built, 14 C-terminal residues disordered
  Km: 40.48 µM
